Data on four molecules can be found in paper PMC8351736 (Molecular Biology of the Cell, 2021).

To fix the notation:
B2: His-Tda2 F86V (natural protein, S. cerevisiae)
chain: SMQIEIKDGRSDNSPLPERKLVTLIQESYDSLKDDNEINLSTESTSNLLIKLVLEKLEKHSSLYKYIASVTTLNIEGLNEENANVSLKNDIGASWESKKDGIFNYKLEDKNNNECYLITILWLHK

Ends that are not written are not given here. * marks the point of attachment. FITC = O=C1OC2(c3ccc(O)cc3Oc3cc(O)ccc32)c2ccc(NC(=S)*)cc21

Data set [1] addresses B2. Put plainly: fluorescence polarisation. On the technique in general: In fluorescence polarisation assays a small probe gives low polarisation when free and higher when bound to something large.
Data set [2] concerns the molecule itself. Put plainly: SEC. In general terms: SEC sorts molecules by how far they enter the pores of the column.
The target in data set [3] is B2. Put plainly: pull-down.
The target of data set [4] is T1, His-Tda2 I103Q (S. cerevisiae, UniProt P40045 2-126, I103Q).
T1 sequence: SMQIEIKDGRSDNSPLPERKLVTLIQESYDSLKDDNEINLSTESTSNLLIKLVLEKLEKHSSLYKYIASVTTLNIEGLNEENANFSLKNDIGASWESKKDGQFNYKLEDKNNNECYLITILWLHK
Put plainly: pull-down.

Data set [5] deals with T2, His-Tda2 K107E (S. cerevisiae, UniProt P40045 2-126, K107E).
T2 sequence: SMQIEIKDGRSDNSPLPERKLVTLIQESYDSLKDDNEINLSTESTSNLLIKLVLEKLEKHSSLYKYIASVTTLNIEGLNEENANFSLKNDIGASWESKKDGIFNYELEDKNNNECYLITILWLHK
Put plainly: pull-down.

Regarding {FITC}-KIEIFNNWNVS [FITC-labeled Aim21 peptide spanning AA 529–539 (FITC-Aim21)], the binding result in data set [1] was “binds”.

B1: His-Tda2 D101A (natural protein, S. cerevisiae)
chain: SMQIEIKDGRSDNSPLPERKLVTLIQESYDSLKDDNEINLSTESTSNLLIKLVLEKLEKHSSLYKYIASVTTLNIEGLNEENANFSLKNDIGASWESKKAGIFNYKLEDKNNNECYLITILWLHK
In the case of B1, in data set [2], the binding result was “binds”.
Same read-out and setting: under B2 stands “binds”.
For the molecule KLPSKVASVEKIEEDDNTNKIEIFNNWNVSSSFSKEKVLIDTTPGE (domain or fragment, S. cerevisiae, UniProt P40563 510-555, looked up) [GST-Aim21^510-555 (wild type)], the binding result in data set [3], in data set [4] and in data set [5] was “binds” each time.
